The supplement of paper PMC9170038

System: K4 kissing-loop RNA reporter
Experiment: apparent KD of K4 kissing-loop reporter; higher = weaker reporter binding
Conditions: Eterna round: R107
Procedure: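 RNA-MaP round R107: designed RNA switches with theophylline, tryptophan, arginine or FMN aptamers are transcribed on-chip within common flanks. They are titrated with a labelled K4 kissing-loop RNA reporter in RNA-MaP buffer (100 mM Tris pH 7.5, 80 mM KCl, 4 mM MgCl2), without ligand or with the indicated ligand. Median apparent KD per design.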

[1] = input ligand: theophylline 20 uM
[2] = input ligand: tryptophan 2.4 mM
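Also: bound reporter read as fluorescence of individual clusters on recovered sequencing chips by microscopy, with normalized cluster intensities fitted with a binding model.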

Sequence	apparent KD of K4 kissing-loop reporter (input ligand: FMN 200 uM) [nM]	apparent KD of K4 kissing-loop reporter (input ligand: arginine 13.2 mM) [nM]	apparent KD of K4 kissing-loop reporter (input ligand: none) [nM]	apparent KD of K4 kissing-loop reporter [1] [nM]	apparent KD of K4 kissing-loop reporter [2] [nM]
CCUAUCUCUUACGAUACCAGUCAAUGAUAUUUUAUCAAUGCCCUCACCGAGUGAUGUUCGGACCCUUGGCAGCGUAUGGGAUAGG [kjnjmullin]	241	162	212	175	188
CCUGCAGCUGUUACCGAGGGAUGCUACGGACGAGGACCGGUACGGCCGCCACUCGCCAGUGAUGUUGGUGAGGGAGGACGUUCCU [Georte]	100	106	150	172	148
CCUUCUCAUUUCCGUUAUCAUUGCCUUAGGAAGGAUAUCAUUAUUUUGAGAAGGUCCGUGGUCUAUUUUCCGAGUGAUGUUUGGU [theeternabot_exclusion_KL_FMN_A_45]	273	226	311	277	248
CCUUGGAUUAGCUGUACUUUUCUACGGGAUACCAGUGCGUAACACCACCCUUGGCAGCCCGAUUACCGGCAGUGAUGUUGCCUCU [theeternabot_sameState_KL_Theo_A_41]	185	282	244	245	192
CGACGCCGGUCGGCCGCCACUCACAGCAGCCAGUGAUGUUGGAUUGUAGCGGAGUGAUGUUUCGCGAGGACCGGGACUGCAGUCG [Same State Tryptophan B GF 12]	167	131	129	130	143
CGAGUGAUGUUCGUUUUUUUAUUUUUUUGACAGGAUAUGCGGAAACGCAGAAGGGUCACCUUUGAGUUAAAAGAAUUUAAAUUAU [Ex FMN A 23]	278	208	254	213	193
CGCAGUGAUGUUGCGAGUUUGAUCAGGGAAGGAGCGGCUCAGAAGCCAGGUAGGUCGCCCACGCAGUGAUGUUGUGUAUUCGGGU [Exclusion Arginine A GF 1]	96.9	88.1	87.9	89.1	79.3
CGCAGUGAUGUUGCUAUAUUUCUUGAUUAACGAGGACCGGUACGGCCGCCACUCGAUUUCUCUCUAAUCCACUAUGUUGUUUAGA [JR_SSTryptoA_Sub002]	390	472	506	524	319
CGCAGUGAUGUUGCUAUUAUUCUUGAUUAACGAGGACCGGUACGGCCGCCACUCGAUUUCUAUCUAAUCCAGUGUUUUGUUGAGU [JR_ExcTryptoA_Sub002]	324	422	346	455	240
CGCCACAACUGAAGGAGCGCGCCAGUGAUGUUGGACGGCUUCGUCAAGGAAACUGCACCGGUGCAGGUAGGUCGCAGUGCGUGGU [Eranarve]	186	164	204	162	195
CGCCGAUUGUCGGAGUGAUGUUCCCGGGAUACCAGCACGUCGUCAUGCCCUUGGCAGCCCAACAGACCAUUUUAAAGGCUAGCUG [theeternabot_sameState_KL_Theo_A_35]	330	97.8	122	221	158
CGCCGGAAGGCGAGCGCUCCCACUCCGGAAGGAGCGCCCGGAAGGGCAGGUAGGUCGCCGGAGUGAUGUUCCGGUGGAGGGCUCG [#2 Exclusion - Arginine A Attempt #11 (Inspired by Omei)]	171	58	164	99.3	99.9
CGCGGCCGGCCGGAUACCAGUGACCCGCUGGAAACCGCGGGCCCAGAGUGAUGUUCGGGACACCCUUGGCAGCCGCCUGGGCGUG [#2 Same State - Theophylline B Attempt #2 (HarryS)]	547	309	440	456	397
CGCUGGGCGAGUGAUGUUCGCUCACGUGAUACCAGUGCAAUCCAACACCCUUGGCAGCACGCGGGCAGUGAUGUUGUCCUUAGUG [Exclusion Theophylline A GF12]	160	149	157	143	127
CGUGAAUGUCGUCAGUCAUCGGUCCAUGCACGAGGACCGGUACGGCCGCCACUCGAGCGUGGCAGUGAUGUUGCCAGCGCACUAA [KL-XTryp-A13]	138	115	128	137	315
CGUUCAUCCUAGGCGUGAGUGAUGUUUACCCGAGGACCGGUACGGCCGCCACUCGUAUGGCGAGAGUUUAGCCAUUUCCAAUAUA [theeternabot_exclusion_KL_Trp_A_17]	465	403	503	505	398
CGUUUCUCUGUCGAUACCAGCUUCAGUUGGCGGCCAGUGAUGUUGGUAUCGCCGAUGCCAAGCCCUUGGCAGCGACAUGAGACCC [Gezausin]	169	163	193	128	166
CUAUCUUAAGAAGGAUAUUAUGUAACAAACGCAGGCGUAUUAGAAUCAGUGAUGUUGAAAUAGGUUUAAGAAGGUCUUAAAGAAA [theeternabot_sameState_KL_FMN_B_31]	593	422	326	608	243
CUCCGACUAUCGGCCGCCACUAUCGGAAAGUCCACGGACAUUCAAUGCAGUUAGUGAUGUUAACGUAGGACCGGGAUGAUUUGUA [theeternabot_sameState_KL_Trp_B_9]	543	350	659	541	491
CUCGAGUGAUGUUCGAUUAUUUAUACAGAUACCAGUGAAUUUUAACACCCUUGGCAGCUGGUUGUAUCAUUGUUUUUUACAAAAG [JR_ExcTheophyA_Sub007]	113	167	117	195	100
CUCGUGGGUUUGAGAGGGUUUGUGGGAAGUGAGGAUAUUUAGGGAGAAAGAAGGCACUAUAAAAUAUAGUGAUGUUAUAUAAGGG [SSFMNA.L]	277	141	325	194	198

Sequence	apparent KD of K4 kissing-loop reporter (input ligand: FMN 200 uM) [nM]	apparent KD of K4 kissing-loop reporter (input ligand: arginine 13.2 mM) [nM]	apparent KD of K4 kissing-loop reporter (input ligand: none) [nM]	apparent KD of K4 kissing-loop reporter [1] [nM]	apparent KD of K4 kissing-loop reporter [2] [nM]
CUCUUCUUUCUUUUAGUGAUGUUAAAUUAGCGAGGACCGGUACGGCCGCCACUCGUAUAGCUGGAAUGACUGUGCGAGGGUUUGU	960	514	905	522	790
CUGACUCAAUAGUCAGUGAUGUUGACUGGACGAGGACCGGUACGGCCGCCACUCGAGAGUGGUGUAAAAUAUGUCACAGAGUCAG [Tryp A SS t3b]	186	194	208	182	200
CUGCAACAUAACUUCUUCGUCCUAGAAGACUAGGAUAUCAGGAAACUGAGAAGGAGUCUCUGCAGUGAUGUUGCAGCUAGGACGA [[K]'-[F2]'-[F1]'-[F1]-[F2]-[K1]-[K2]-[F]''_Design3]	195	159	148	197	173
CUGGGUUGACGAAAAGUCAACAAAAGAGAAGGAGCGCACGAAAGUGCAGGUAGGUCGCUCAGUCCAGUGAUGUUGGAUCAUCCAG [#SwitchBubble 11 #K4Late]	324	502	484	454	346
CUGUUUGGUUGAGAGGUUGGGCGGAAUGAUACCAGUAUAUAAGAAUACCCUUGGCAGCAUAAGAAAGAUAUAGUGAUGUUGUAUA [SSTheophA.K]	526	297	464	536	417
CUUAGGAGUGGUGUUGAUUAGGGAGCGGAAGGAGCGCCAAUGAUGGCAGGUAGGUCGCCGGAAUAUAGUGAUGUUAUAUAGAGGG [ExArgA.Q]	273	252	592	290	222
CUUAUGGCGUUUGGAAGGAGCGGCUCAUCACGAGGACCGGUACGGCCGCCACUCGAGAGAGCAUAAGAAAGUGAUGUUUUCGGUU [theeternabot_sameState_KL_Trp_A_44]	517	415	496	395	314
CUUCGAUUAACGGAUACCAGUCACUUGGGAGCCACACACAAGUGAGUGAUGUUCACUUGUGACCCUUGGCAGCCGUUAGUCGAAG [#05 K4 Theophylline B Exclusion]	106	85	99.4	157	97.9
CUUGGAAGGACGGCCGCCACUGGGCAGUGAUGUUGCCCGAGUUGGUAACGCAGUGAUGUUGCGUCCAGGACCGGGUCCUAGGAAU [Exclusion Tryptophan B GF 25]	141	113	112	106	139
GAAUAAUAAGUAGCAGUGAUGUUGCUACUACGAGGACCGGUACGGCCGCCACUCGAAUACGAGUGGACACUGCUACUACCACUCG [(H1)-(H2)-(Trp1)-(Trp2)-(T)'-(H)'-(T)''_Design8]	121	118	121	122	170
GAAUCAUGUAGAAGGAGCGUUAGAAGUUAUAGGGAUGAGUGAUGUUUGUGUUAGUAAAUCUGACAGGUAGGUCGCUACAGAAGGA [KL-SSArg B21 #analogue]	712	258	607	132	308
GAAUUAUGUAGAAGGAGCGUCAGAAGGUAUAGGUGCGAGUGAUGUUUGGACCUGUUAAUUUGACAGGUAGGUCGCUACAGAAGGA [KL-SSArg B20 #analogue]	533	291	448	304	320
GAGAUGCACCAGUCUUAACGUGACUUAUCCCGAGGACCGGUACGGCCGCCACUCGCGUACUACUAGUGAUGUUGGUCAGUAUGAG [theeternabot_sameState_KL_Trp_A_26]	244	185	215	223	235
GAGCCAGAGGUUGCUGCGGGUUUCAGAGAUACCAGCCGUAUUGUAGGCCCUUGGCAGCUCGAGUGAUGUUCGAGCCGCCUCUGGC [Eredorxela]	111	102	120	129	109
GAGGAUAGCGGAAGGAGCGAGUAAUGGAGUGAUGUUCCAAUCAAUAAAACACGAUAGAGUGCUCAGGUAGGUCGCCGUGGUGGUU [Exclusion Argiie B GF 13]	124	143	165	277	111
GAGGUGCUGAUGCGGUGGCCGGUGGUCGUGCGAGGACCGGUACGGCCGCCACUCGCAUGAGUGAUGUUCAUGUGUCGUCGUCGUC [whbob_EX_Tryp_A_t3]	172	104	132	117	172
GAUAUAUAUAGAGGAUAUAGCAGGUGAUACAAGAAAGUGAGUGAUGUUUAUGUAGAUGAUGAUAUGUUAGAAGGCUAUAUAUAUC [radioactive7-modED1598]	844	736	766	723	706
GAUUAAUAAGAGGAUACCAGUACAAAUAAAGUACAUUAAUAGUAGAGUGAUGUUCUAAAGUACCCUUGGCAGCUUAGAGUAAGUU [ExTheophylB.A]	119	207	174	226	94.4
GAUUCAGUGAUGUUGGAAGGCGAGCGGGAUACCAGCCAAGACUCAGGCCCUUGGCAGCCCACAUAUCCCAGGUAGAUAGUCGCUC [Same State - Theophylline A (Freestyle 11)]	271	265	254	293	270
GCAGUGAUGUUGCACGAGUAGGCUGGAGUACGAGGACCGGUACGGCCGCCACUCGUACGAUAGUCGCUAAUUUAUGGAAUGGUGA [#08 K4 Tryptophan A Same State]	458	381	551	286	419
GCAGUGAUGUUGCACGAGUAGGCUGGAGUACGAGGACCGGUACGGCCGCCACUCGUACGGAAGUCGCUAAUUUAUGGAAUGGUGA [#06 K4 Tryptophan A Same State]	592	381	341	413	436
